Data reported in patent US10782287B2, “Enzyme coupled assay for quantification of protein and peptide binding by SAMDI mass spectrometry” (NORTHWESTERN UNIVERSITY, priority 2015, dated 2020).
Ends that are not written are not given here.

Target: T1, Cbx1 fusion protein (Cbx1 chromodomain-KDAC8) (Homo sapiens, UniProt P83916)
T1 construct: constructing E. coli-based vectors containing chromodomains and KDAC8 separated by a short linker; made in house; host or cells: E. coli
Test: Enzyme-coupled SAMDI mass spectrometry assay: deacetylation of an immobilized KDAC8 substrate reports chromodomain binding to a co-immobilized ligand
Type: biochemical
Conditions: monolayer presenting substrate GMK^AcFGC and the ligand; when the chromodomain binds its ligand on the monolayer
Description: In this example, two peptides—a methylated peptide that binds the chromodomain and an acetylated peptide that is a substrate for the deacetylase—are immobilized to a monolayer presenting maleimide groups against a background of tri(ethylene glycol) groups. The density of the maleimide group is controlled precisely (Houseman et al., Langmuir 19: 1522-1531 (2003)) and the relative densities of the two peptides are controlled either by immobilizing them as a mixture at defined concentrations or by immobilizing the first for a time that gives incomplete immobilization followed by addition of the second peptide. Fusion proteins are prepared by first constructing E. coli-based vectors containing chromodomains and KDAC8 separated by a short linker. The vector is designed to contain a restriction site allowing for the insertion of any chromodomain of interest containing the complementary restriction sites. In this way, the same plasmid containing KDAC8 may be used to rapidly create several chromodomain fusions. Monolayers are treated with the chromodomain-KDAC8 fusion protein for different times, the reactions are stopped by rinsing and the spots are analyzed by SAMDI mass spectrometry to identify an initial velocity for the reaction, υo, which is the measurable parameter that is used to assess the protein-ligand interaction. […]

T1 sequence (P83916 21-79 limits assumed): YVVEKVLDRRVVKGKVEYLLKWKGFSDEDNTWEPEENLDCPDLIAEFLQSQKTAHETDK

rate acceleration for the deacetylation reaction: approximately 20 fold
Substance: QTARK^MeSTGC: methylated H3K9-based peptide ligand for the Cbx1 chromodomain, immobilized on the monolayer via cysteine (QTARK(Me)STGC; also: immobilized on the monolayer via cysteine)
